Results as given in article PMC11685663.

Target: recombinant H5 hemagglutinin (rH5) ectodomain from A/Texas/37/2024 (H5N1, clade 2.3.4.4b) (influenza A virus A/Texas/37/2024 (H5N1))
Test: cryo-EM structure

In the case of “recombinant H5 hemagglutinin (rH5) ectodomain from A/Texas/37/2024 (H5N1, clade 2.3.4.4b) (natural protein)”, the stoichiometry N is reported as 3.
